Results as given in PMC5632138 (Journal of molecular biology, 2017).
Values belong to the binder of their own block, whether it stands above or below them.

What was measured:
[1] = target: T1, MED25 ACID Ile521Glu (analyte) (human, UniProt Q71SY5 391-553, Ile521Glu); experiment: BLI
T1 sequence (looked up): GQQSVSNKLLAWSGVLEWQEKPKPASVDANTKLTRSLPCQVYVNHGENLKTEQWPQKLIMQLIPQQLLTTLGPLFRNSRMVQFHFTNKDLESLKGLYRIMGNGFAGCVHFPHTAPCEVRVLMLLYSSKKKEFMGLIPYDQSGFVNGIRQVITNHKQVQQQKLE

[2] = target: T2, MED25 ACID Leu514Glu (analyte) (human, UniProt Q71SY5 391-553, Leu514Glu); experiment: BLI
T2 sequence (looked up): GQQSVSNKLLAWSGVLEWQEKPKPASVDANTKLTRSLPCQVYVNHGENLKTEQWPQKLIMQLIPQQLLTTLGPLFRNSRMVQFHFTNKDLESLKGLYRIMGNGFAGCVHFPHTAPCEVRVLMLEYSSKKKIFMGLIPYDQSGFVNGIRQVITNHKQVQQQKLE

[3] = target: T3, MED25 ACID Lys518Ala/Lys519Ala/Lys520Ala (analyte) (human, UniProt Q71SY5 391-553, Lys518Ala | Lys519Ala | Lys520Ala); experiment: BLI
T3 sequence (looked up): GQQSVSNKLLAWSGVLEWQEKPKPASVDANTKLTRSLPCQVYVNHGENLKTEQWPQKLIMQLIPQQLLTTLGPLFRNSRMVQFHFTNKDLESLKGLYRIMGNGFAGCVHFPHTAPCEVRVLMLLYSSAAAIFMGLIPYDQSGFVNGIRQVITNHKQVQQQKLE

[4] = target: T4, MED25 ACID Tyr487Ser (analyte) (human, UniProt Q71SY5 391-553, Tyr487Ser); experiment: BLI
T4 sequence (looked up): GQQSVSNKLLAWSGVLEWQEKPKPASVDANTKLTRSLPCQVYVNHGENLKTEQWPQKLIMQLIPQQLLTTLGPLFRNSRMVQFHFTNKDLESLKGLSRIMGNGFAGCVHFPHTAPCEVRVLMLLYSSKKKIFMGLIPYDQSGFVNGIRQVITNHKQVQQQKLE

[5] = target: T5, MED25 ACID Arg466Glu (analyte) (human, UniProt Q71SY5 391-553, Arg466Glu); experiment: BLI
T5 sequence (looked up): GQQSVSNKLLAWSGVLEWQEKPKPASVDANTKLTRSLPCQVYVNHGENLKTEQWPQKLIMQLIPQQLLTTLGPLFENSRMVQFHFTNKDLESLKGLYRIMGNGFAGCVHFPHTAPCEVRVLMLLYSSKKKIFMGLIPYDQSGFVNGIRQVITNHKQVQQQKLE

[6] = target: T6, MED25 ACID Met523Glu (analyte) (human, UniProt Q71SY5 391-553, Met523Glu); experiment: BLI
T6 sequence (looked up): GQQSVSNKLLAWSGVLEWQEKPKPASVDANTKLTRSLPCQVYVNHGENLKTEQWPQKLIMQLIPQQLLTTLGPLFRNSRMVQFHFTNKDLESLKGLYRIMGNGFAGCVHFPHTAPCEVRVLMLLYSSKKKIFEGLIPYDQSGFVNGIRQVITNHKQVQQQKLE

[7] = target: T7, MED25 ACID Gln430Glu (analyte) (human, UniProt Q71SY5 391-553, Gln430Glu); experiment: BLI
T7 sequence (looked up): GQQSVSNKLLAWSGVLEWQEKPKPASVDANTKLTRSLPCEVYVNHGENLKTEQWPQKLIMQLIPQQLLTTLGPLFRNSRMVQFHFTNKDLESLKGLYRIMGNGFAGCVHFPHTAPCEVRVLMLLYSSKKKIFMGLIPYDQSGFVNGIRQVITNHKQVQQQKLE

[8] = target: T8, MED25 ACID His474Glu (analyte) (human, UniProt Q71SY5 391-553, His474Glu); experiment: BLI
T8 sequence (looked up): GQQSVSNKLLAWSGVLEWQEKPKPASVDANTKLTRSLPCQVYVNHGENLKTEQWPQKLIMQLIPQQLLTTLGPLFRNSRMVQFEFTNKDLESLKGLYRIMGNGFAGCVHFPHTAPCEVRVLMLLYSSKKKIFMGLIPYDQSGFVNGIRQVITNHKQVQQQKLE

[9] = target: T9, MED25 ACID (residues 391–553), from pET28 (human, UniProt Q71SY5 391-553); experiment: NMR titration
T9 sequence (looked up): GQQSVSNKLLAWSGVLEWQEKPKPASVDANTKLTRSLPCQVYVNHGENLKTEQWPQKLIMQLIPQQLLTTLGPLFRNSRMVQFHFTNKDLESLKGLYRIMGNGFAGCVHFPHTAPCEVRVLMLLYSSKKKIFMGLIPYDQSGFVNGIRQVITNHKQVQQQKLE

ETV4 WT;MED25 ACID = ETV4 WT;MED25 ACID (human?;human, UniProt P43268;Q71SY5 1-484;391-553, |); experiment: EMSA
ETV4 Phe428Ala/Phe432Ala = ETV4 Phe428Ala/Phe432Ala (UniProt P43268 1-484, F428A;F432A); experiment: EMSA
ETV4 Leu430Ala = ETV4 Leu430Ala (UniProt P43268 1-484, L430A); experiment: EMSA
ETV4 Leu430Ala, sequence (P43268 whole entry L430A): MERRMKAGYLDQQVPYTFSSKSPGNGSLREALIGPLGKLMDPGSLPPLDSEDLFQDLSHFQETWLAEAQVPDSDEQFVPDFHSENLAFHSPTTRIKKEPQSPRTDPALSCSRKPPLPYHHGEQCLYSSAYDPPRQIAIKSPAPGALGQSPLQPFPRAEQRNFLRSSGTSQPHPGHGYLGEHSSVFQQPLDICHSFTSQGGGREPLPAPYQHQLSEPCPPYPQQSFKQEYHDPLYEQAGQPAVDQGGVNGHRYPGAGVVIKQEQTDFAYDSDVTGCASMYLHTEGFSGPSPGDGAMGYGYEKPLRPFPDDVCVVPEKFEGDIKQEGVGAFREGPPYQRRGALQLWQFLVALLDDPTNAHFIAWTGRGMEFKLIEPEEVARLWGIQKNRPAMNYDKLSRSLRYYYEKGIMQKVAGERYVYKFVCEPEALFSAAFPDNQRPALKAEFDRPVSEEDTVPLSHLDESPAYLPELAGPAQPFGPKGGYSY

ETV4 WT;MED25 ACID, sequence (P43268 whole entry, one chain of several): as the sequence (P43268 whole entry L430A) above, with A430L counted along it
ETV4 Phe428Ala/Phe432Ala, sequence (P43268 whole entry F428A/F432A): as the sequence (P43268 whole entry L430A) above, with F428A, A430L, F432A counted along it

- binding result [1]: binds
- binding result [2]: binds
- binding result [3]: binds
- binding result [4]: binds
- binding result [5]: binds
- binding result [6]: binds
- binding result [7]: binds
- binding result [8]: binds
B1: ETV4^337–436 (DNA-binding domain), biotinylated ligand for biolayer interferometry (domain or fragment, UniProt P43268 337-436, looked up)
chain: RRGALQLWQFLVALLDDPTNAHFIAWTGRGMEFKLIEPEEVARLWGIQKNRPAMNYDKLSRSLRYYYEKGIMQKVAGERYVYKFVCEPEALFSLAFPDNQ
modifications: biotin (biotinylated; D-biotin added at the induction point)

- binding result [9]: binds
B2: ETV4^337–436 (DNA-binding domain), from pET28 (domain or fragment, UniProt P43268 337-436, looked up)
chain: RRGALQLWQFLVALLDDPTNAHFIAWTGRGMEFKLIEPEEVARLWGIQKNRPAMNYDKLSRSLRYYYEKGIMQKVAGERYVYKFVCEPEALFSLAFPDNQ

B3: 27-bp consensus ETS duplex (dsDNA)
DNA 1: TCGACGGCCAAGCCGGAAGTGAGTGCC
DNA 2: TCGAGGCACTCACTTCCGGCTTGGCCG
- Kd (ETV4 WT;MED25 ACID): 2.1 ± 0.5 nM
- Kd (ETV4 Phe428Ala/Phe432Ala): 3.7 ± 0.8 nM
- Kd (ETV4 Leu430Ala): 1.9 ± 0.4 nM
